The values below are quoted from earlier work in article PMC5760685.

The data set has as its target CRHR1 (UniProt P34998).
Chain of UniProt P34998 (P34998 24-415): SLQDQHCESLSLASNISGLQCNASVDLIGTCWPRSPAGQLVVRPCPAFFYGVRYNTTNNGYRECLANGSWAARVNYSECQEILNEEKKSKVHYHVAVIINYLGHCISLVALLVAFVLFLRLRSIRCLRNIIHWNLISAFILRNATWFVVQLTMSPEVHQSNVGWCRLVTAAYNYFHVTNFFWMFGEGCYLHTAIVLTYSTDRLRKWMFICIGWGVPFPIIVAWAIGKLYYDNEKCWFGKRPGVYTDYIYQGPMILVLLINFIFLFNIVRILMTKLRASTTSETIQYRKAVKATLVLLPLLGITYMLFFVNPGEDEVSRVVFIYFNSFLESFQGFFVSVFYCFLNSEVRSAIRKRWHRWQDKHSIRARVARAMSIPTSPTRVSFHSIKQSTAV

In the case of CRH (from UniProt P06850), the dissociation constant (Kd) (usually the concentration at which binding is half-saturated) was 3 nM.
